Source: PMC3280358

Key:
Nbs1 = Nbs1 (UniProt O60934); test: far-western with FLAG-Nbs1; details: reference: nonphosphorylated NTD; sites T13
Nbs1 1-382 = Nbs1 1-382 (UniProt O60934); test: ITC

For “Rad51 NTD, 1-86 (from UniProt Q06609) CK2-phosphorylated NTD”, the “binding against the reference” value (Nbs1) was “gained”.
For “Rad51 NTD peptide (from UniProt Q06609) pT13 peptide”, the KD (Nbs1 1-382; reference: nonphosphorylated peptide, sites T13) was “gained; reference no detectable binding”.
“Rad51 NTD peptide (from UniProt Q06609) pT13/pS14 peptide” was tested, and the KD (Nbs1 1-382; reference: pS14 peptide, sites T13) was “gained; reference no detectable binding” and the KD (Nbs1 1-382; reference: pT13 peptide, sites S14) was “weaker; reference around 20”.
